Experimental data as given in EP4722246A1, “TEM8-TARGETED ANTIBODY OR ANTIGEN-BINDING FRAGMENT THEREOF, AND USE THEREOF” (Inxmed (Nanjing) Co., Ltd., priority 2023, dated 2024).

B1: phage clone 3B3 (scFv on phage) (scFv, V domains shown)
VH: EVQLVQSGGGLVKPGGSLRLSCAASGFTFSSYSMNWVRQAPGKGLEWVSSISSSSSYIYYADSVKGRFTISRDNAKNSLYLQMNSLRAEDTAVYYCARVRPPYGMDVWGQGTLVTVSS
VL: NIQMTQSPSSVSASVGDTVTISCRASQGISNWLGWYQQRPGEAPKLLIYAASHLQSGVPSRFSGSGSGTDFVLTITSLQPEDFATYYCQQSNSFPLAFGGGTKLEIK
B2: phage clone 6A6 (scFv on phage) (scFv, V domains shown)
VH: EVQLVESGGGVVQPGGSLRLSCAASGFTFDDYAMHWVRQAPGKGLEWVSLISGDGGSTYYADSVKGRFTISRDNSKNSLYLQMNSLKASDTAMYYCARPRWGRYSSSWPFDYWGQGTLVTVSS
VL: QSALTQPASVSGSPGQSITISCTGTSSDVGTYNYVSWYQQHPGKAPKLMIYDVTDRPSGISNRFSGSKSGNTASLTISGLQAEDEGNYYCSSYTSNRSWVFGGGTKLTVL
B3: phage clone 7E3 (scFv on phage) (scFv, V domains shown)
VH: QVQLVESGGGLVNPGGSLRLSCAVSGFTSSGFSINWVRQAPGKGLEWVSSISGIGDSIFYADSVKGRFTISRDNAKNLVFLQMNSVKAEDTAVYYCVRDKWGWGTYSLFDYWGQGTLVTVSS
VL: QAVLTQPPSASGTPGQRVTISCSGSSSNIASNVVSWYQQLPGTAPKVLIYSNNRRPSGVPDRFSGSKSGASASLAISGLQSDDETHYYCAAWDDSLKGPVFGGGTQLTVL
B4: phage clone 11B7 (scFv on phage) (scFv, V domains shown)
VH: QVQLVQSGGGVVQPGRPLRLSCAASGFNLGSYAMSWVRQAPGKGLEWVSAISGSGGSTYYADSVKGRFTISRDNSKNTLYLQMNSLRAEDTAVYYCAKILGPGNLNYYYYYGMDVWGQGTTVTVSS
VL: SSELTQDPAVSVALGQTVRITCQGDSLRNSYASWYQQKPGQAPVLVIYGNNNRPSGIPDRVSGSRSGNTASLTITGAQAEDEADYYCNSRDSSGNHVVFGGGTELTVL

Molecular target: hTEM8-his antigen (hTEM8 containing 6 His tags) (human) (UniProt Q9H6X2)
Sequence (Q9H6X2 33-321 limits assumed): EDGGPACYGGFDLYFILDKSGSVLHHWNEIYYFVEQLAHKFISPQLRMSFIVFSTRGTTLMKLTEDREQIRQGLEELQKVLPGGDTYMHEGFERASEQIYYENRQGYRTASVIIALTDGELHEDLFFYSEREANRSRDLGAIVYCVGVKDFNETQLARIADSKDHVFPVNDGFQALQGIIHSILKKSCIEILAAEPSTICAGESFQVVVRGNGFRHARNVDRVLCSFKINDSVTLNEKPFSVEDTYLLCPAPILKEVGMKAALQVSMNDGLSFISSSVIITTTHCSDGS
Assay: phage supernatant ELISA on hTEM8-his

| Binder | hTEM8-his ELISA (OD450) |
| --- | --- |
| B1 | 2.86 |
| B2 | 2.67 |
| B3 | 2.5 |
| B4 | 2.43 |
